From the supplement of paper PMC7877785
± gives the uncertainty stated by the source.

Experiment: self-splicing fitness, log relative to wild type (ln ratio); higher = more splicing; Tetrahymena group I intron in knt gene, E. coli kanamycin selection, DiMSum; sequences stand for … in CUCUCU…GGAGGGAAAAGUUAUCAGGCAUGCACCUGGUAGCUAGUCUUUAAACCAAUAGAUUGCAUCGGUUUAAAAGGCAAGACCGUCAAAUUGCGGGAAAGGGGUCAACAGCCGUUCAGUACCAAGUCUCAGGGGAAACUUUGAGAUGGCCUUGCAAAGGGUAUGGUAAUAAGCUGACGGACAUGGUCCUAACCACGCAGCCAAGUCCUAAGUCAACAGAUCUUCUGUUGAUAUGGAUGCAGUUCACAGACUAAAUGUCGGUCGGGGAAGAUGUAUUCUUCUCAUAAGAUAUAGUCGGACCUCUCCUUAAUGGGAGCUAGCGGAUGAAGUGAUGCAACACUGGAGCCGCUGGGAACUAAUUUGUAUGCGAAAGUAUAUUGAUUAGUUUUGGAGUACUCGUGGUCG
How it was run: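 Colonies from six replicate transformations of E. coli BL21(DE3) were pooled and amplicon-sequenced on an Illumina HiSeq 2500. The library placed an intron with all eight P1ex-region nucleotides randomised inside the knt kanamycin-resistance gene on pET-22b(+), and cells grew overnight at 37°C or 30°C on LB agar with or without 25 μg/mL kanamycin (plus 100 μg/mL carbenicillin, 50 μM IPTG, 0.2% rhamnose). Fitness is the DiMSum error-weighted combination of wild-type-normalised replicate fold changes, kanamycin versus none.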

Sequence	self-splicing fitness (ln) (30 °C)	self-splicing fitness (ln) (37 °C)
CUCUAGCAAUAUUACGGCGC	-2.53 ± 0.28	-3.04 ± 0.43
CUCUAGCAAUAUUACGGCUG	-2.87 ± 0.24	-2.31 ± 0.25
CUCUAGCAAUAUUACGUAUA	-2.7 ± 0.3	-2.84 ± 0.25
CUCUAGCAAUAUUACGUAUU	-2.14 ± 0.13	-3.57 ± 0.25
CUCUAGCAAUAUUACGUCUC	-3.06 ± 0.23	-1.81 ± 0.29
CUCUAGCAAUAUUACGUUCU	-3.1 ± 0.15	-3.47 ± 0.22
CUGAAGCAAUAUUACGAAUA	-2.41 ± 0.48	-2.22 ± 0.43
CUGAAGCAAUAUUACGAAUU	-3.24 ± 0.12	-1.86 ± 0.14
CUGAAGCAAUAUUACGACCG	0.3 ± 0.15	0.854 ± 0.17
CUGAAGCAAUAUUACGACGC	-3.78 ± 0.35	–
CUGAAGCAAUAUUACGACUU	-3.13 ± 0.35	-1.75 ± 0.3
CUGAAGCAAUAUUACGAUUA	-2.6 ± 0.2	-2.84 ± 0.29
CUGAAGCAAUAUUACGAUUC	-3.13 ± 0.23	-2.5 ± 0.29
CUGAAGCAAUAUUACGCCAA	-3.31 ± 0.41	–
CUGAAGCAAUAUUACGCCUA	-3.82 ± 0.24	-3.63 ± 0.33
CUGAAGCAAUAUUACGCUGC	-2.12 ± 0.34	–
CUGAAGCAAUAUUACGGAAC	–	-2.55 ± 0.3
CUGAAGCAAUAUUACGGAAG	-1.37 ± 0.096	-0.636 ± 0.12
CUGAAGCAAUAUUACGGACA	-1.79 ± 0.14	-2.22 ± 0.27
CUGAAGCAAUAUUACGGAUU	-4.16 ± 0.17	-3.01 ± 0.26
CUGAAGCAAUAUUACGGCUU	-4 ± 0.34	-2.84 ± 0.26
CUGAAGCAAUAUUACGUAAA	-2.54 ± 0.33	-1.7 ± 0.46
CUGAAGCAAUAUUACGUCAC	-2.03 ± 0.11	-2.73 ± 0.24
CUGAAGCAAUAUUACGUGAU	-2.7 ± 0.12	-1.07 ± 0.15
CUGCAGCAAUAUUACGAACU	-2.75 ± 0.3	-2.34 ± 0.33

Sequence	self-splicing fitness (ln) (30 °C)	self-splicing fitness (ln) (37 °C)
CUGCAGCAAUAUUACGACGG	-2.75 ± 0.17	-0.0134 ± 0.14
CUGCAGCAAUAUUACGAGCG	-0.799 ± 0.093	0.667 ± 0.11
CUGCAGCAAUAUUACGAGGG	-4.19 ± 0.24	-1.95 ± 0.17
CUGCAGCAAUAUUACGCAAU	-3.55 ± 0.25	-2.77 ± 0.21
CUGCAGCAAUAUUACGCCCA	–	-1.31 ± 0.49
CUGCAGCAAUAUUACGCUUG	-3.55 ± 0.2	-2.25 ± 0.22
CUGCAGCAAUAUUACGCUUU	-4.46 ± 0.28	-2.6 ± 0.26
CUGCAGCAAUAUUACGGACU	-3.58 ± 0.21	-1.33 ± 0.15
CUGCAGCAAUAUUACGGGCG	-1.3 ± 0.059	-0.522 ± 0.073
CUGCAGCAAUAUUACGGGGA	-2.72 ± 0.19	-2.22 ± 0.18
CUGCAGCAAUAUUACGGUAA	-2.7 ± 0.16	-1.76 ± 0.14
CUGCAGCAAUAUUACGGUAU	-4.53 ± 0.25	-2.85 ± 0.19
CUGCAGCAAUAUUACGGUGA	-2.37 ± 0.12	-0.923 ± 0.099
CUGCAGCAAUAUUACGGUUU	-3.11 ± 0.13	-1.43 ± 0.12
CUGCAGCAAUAUUACGUAAA	-3.28 ± 0.14	-1.19 ± 0.14
CUGCAGCAAUAUUACGUAAC	-3.31 ± 0.26	-2.38 ± 0.29
CUGCAGCAAUAUUACGUACA	-2.96 ± 0.29	-1.43 ± 0.19
CUGCAGCAAUAUUACGUGGU	-3.34 ± 0.18	-3.71 ± 0.31
CUGGAGCAAUAUUACGAAGU	-2.22 ± 0.37	-2.38 ± 0.43
CUGGAGCAAUAUUACGAGCA	-2.32 ± 0.46	-2.63 ± 0.42
CUGGAGCAAUAUUACGAGGC	-2.02 ± 0.4	-0.672 ± 0.47
CUGGAGCAAUAUUACGAGGG	-2.67 ± 0.24	-2.08 ± 0.34
CUGGAGCAAUAUUACGAUUA	-2.56 ± 0.27	-1.07 ± 0.26
CUGGAGCAAUAUUACGCAGG	-3.11 ± 0.23	-2.36 ± 0.2
